# Measured values published in patent US5770720.
# Legend:
# [1] = molecular target: LexADB/lamin C hybrid (Escherichia coli (strain K12)); assay: yeast two-hybrid, LexA DNA binding domain fusion against Gal4 activation domain vector alone
# [2] = molecular target: LexADB/WT-N (LexA DNA binding domain fused to residues 85-179 of human WT1) (human) (UniProt P19544); assay: as above
# [3] = molecular target: LexADB/WT-INS (containing residues 250-266 of WT1) (human) (UniProt P19544); assay: as above
# [4] = molecular target: LexADB/lamin C hybrid (Escherichia coli (strain K12)); assay: yeast two-hybrid, LexA DNA binding domain fusion against Gal4 activation domain fusion
# [5] = molecular target: LexADB/WT-N (LexA DNA binding domain fused to residues 85-179 of human WT1) (human) (UniProt P19544); assay: as above
# [6] = molecular target: WT1, Wilm's tumor suppressor gene product (full length) (human) (UniProt P19544)
# Chain of hUBC-9, human ubiquitin conjugating enzyme (P63279 whole entry): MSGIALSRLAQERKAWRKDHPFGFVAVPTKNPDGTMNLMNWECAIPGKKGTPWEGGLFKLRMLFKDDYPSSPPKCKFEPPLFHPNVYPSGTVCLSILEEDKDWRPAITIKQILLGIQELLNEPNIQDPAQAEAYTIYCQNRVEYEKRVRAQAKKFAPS
# Chain of hUBC-9 fused with the Gal4 activation domain (P63279 whole entry, the tested form may be a part): as the sequence (P63279 whole entry) above
substance,measurement,setting,value
Gal4 activation domain vector alone (from UniProt P04386),β-Galactosidase activity,[1],0.3 units
same,β-Galactosidase activity,[2],0.3 units
same,β-Galactosidase activity,[3],0.2 units
hUBC-9 fused with the Gal4 activation domain,β-Galactosidase activity,[4],1.5 units
same,β-Galactosidase activity,[5],57.9 units
"hUBC-9, human ubiquitin conjugating enzyme","relative CAT activity (PDGF A-chain promoter driven CAT reporter, 293 cells) (% relative activity)",[6],2
